US20240101675A1 (BIOLOJIC DESIGN, published 2024)

T1: recombinant human OX40 tagged with histidine tag (hOX40-His) (human, UniProt P43489 29-216)
T1 construct: bought (Reprokine); also called hOX-His; not shown: histidine tag
T1 sequence (looked up): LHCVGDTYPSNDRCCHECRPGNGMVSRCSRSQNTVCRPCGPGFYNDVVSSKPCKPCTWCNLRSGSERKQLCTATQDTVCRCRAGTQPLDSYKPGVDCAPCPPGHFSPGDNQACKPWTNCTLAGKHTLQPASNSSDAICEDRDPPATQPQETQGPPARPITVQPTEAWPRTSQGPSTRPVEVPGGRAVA


Experiments:
[1] = target: T2, recombinant human IL-13 (rh-IL-13)-Fc (human, UniProt P35225 35-146, limits assumed); assay: yeast surface display scFv, flow cytometry, 10 nM rh-IL-13
T2 construct: used for yeast surface display labelling; not shown: Fc (detected with anti human Fc)

[2] = target: T3, recombinant human TSLP (hTSLP)-Fc (human, UniProt Q969D9 29-159, limits assumed); assay: yeast surface display flow cytometry, 10 nM hTSLP-Fc; MFI normalized to expression and to the positive control
T3 construct: used for yeast surface display labelling; also called rhTSLP; not shown: Fc

[3] = target: T2, recombinant human IL-13 (rh-IL-13)-Fc; assay: yeast surface display flow cytometry, 10 nM rh-IL-13-Fc; MFI normalized to expression and to the positive control
Experimental: Isolated clones from the final sort were sequenced by extraction of plasmid DNA from the yeast clones using a Zymoprep kit (Zymo Research, USA) and the DNA was sequenced. […] Cells were washed and resuspended in ice-cold PBS 0.1% BSA buffer containing a fluorescent labeled secondary antibody as described above for 20 min and analyzed using a flow cytometer.

[4] = target: T1, recombinant human OX40 tagged with …; assay: yeast surface display scFv, flow cytometry, 90 nM hOX40-His

T2 sequence (P35225 35-146 limits assumed): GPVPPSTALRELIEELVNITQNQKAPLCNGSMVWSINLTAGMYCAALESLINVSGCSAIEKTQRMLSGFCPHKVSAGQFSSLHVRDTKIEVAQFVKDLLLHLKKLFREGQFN

Binder	binding result [2]	binding result [4]	other results
C2 (yeast-displayed scFv clone) (scFv, V domains shown, also called Clone C2; C2-VH-L-VL; not shown: linker) VH: QMQLVESGGGVVQPGRSLRLSCAASGFTFRTYGMHWVRQAPGKGLEWVAVIWYDGSNKHYADSVKGRFTITRDNSKNTLNLQMNSLRAEDTAVYYCARAPQWELTAEAFDIWGQGTMVTVSS VL: SYVLTQPPSVSVAPGQTARITCGGNLIGSKLVHWYQQKPGQAPVLVVYDDSDRPSLIPERFSGSNSGNTATLTISRVEAGDEADYYCQVWDSSSDGVVFGGGTKLTVL	–	–	relative affinity (normalized MFI against the positive control) [1]: > 20 % of positive control
C9 (yeast-displayed scFv clone) (scFv, V domains shown, also called Clone C9; C9-VH-L-VL; not shown: linker) VH: QMQLVESGGGVVQPGRSLRLSCAASGFTFRTYGMHWVRQAPGKGLEWVAVIWYDGSNKHYADSVKGRFTITRDNSKNTLNLQMNSLRAEDTAVYYCARSPQWEWVHEAFDLWGQGTMVTVSS VL: SYVLTQPPSVSVAPGQTARITCGGNLIGSKLVHWYQQKPGQAPVLVVYDDGDRPSWIPERFSGSNSGNTATLTISRVEAGDEADYYCQVWDSSSDGVVFGGGTKLTVL	–	–	relative affinity (normalized MFI against the positive control) [1]: > 20 % of positive control
C45 (scFv, V domains shown, also called C45-VH-L-VL) VH: QMQLVESGGGVVQPGRSLRLSCAASGFTFRTYGMHWVRQAPGKGLEWVAVIWYDGSNKHYADSVKGRFTITRDNSKNTLNLQMNSLRAEDTAVYYCARAPQWELTSEAFDLWGQGTMVTVSS VL: SYVLTQPPSVSVAPGQTARITCGGNLIGSKLVHWYQQKPGQAPVLVVYDDSDRPSEIPERFSGSNSGNTATLTISRVEAGDEADYYCQVWDSSSDGVVFGGGTKLTVL	binds	–	–
C26 (scFv, V domains shown, also called C26-VH-L-VL) VH: QMQLVESGGGVVQPGRSLRLSCAASGFTFRTYGMHWVRQAPGKGLEWVAVIWYDGSNKHYADSVKGRFTITRDNSKNTLNLQMNSLRAEDTAVYYCARAPQWELTAEAFDLWGQGTMVTVSS VL: SYVLTQPPSVSVAPGQTARITCGGNIIGSKLVHWYQQKPGQAPVLVVYDDGDRPSGIPERFSGSNSGNTATLTISRVEAGDEADYYCQVWDTSSDHVVFGGGTKLTVL	binds	–	binding result [3]: binds
C43 (scFv, V domains shown, also called C43-VH-L-VL) VH: QMQLVESGGGVVQPGRSLRLSCAASGFTFRTYGMHWVRQAPGKGLEWVAVIWYDGSNKHYADSVKGRFTITRDNSKNTLNLQMNSLRAEDTAVYYCARAPQWQLVAEAFDIWGQGTMVTVSS VL: SYVLTQPPSVSVAPGQTARITCGGNLIGSKLVHWYQQKPGQAPVLVVYDDSDRPSAIPERFSGSNSGNTATLTISRVEAGDEADYYCQVWDTSSDGVVFGGGTKLTVL	binds	–	binding result [3]: binds
C37 (scFv, V domains shown, also called C37-VH-L-VL) VH: QMQLVESGGGVVQPGRSLRLSCAASGFTFRTYGMHWVRQAPGKGLEWVAVIWYDGSNKHYADSVKGRFTITRDNSKNTLNLQMNSLRAEDTAVYYCARAPQWELVAEAFDMWGQGTMVTVSS VL: SYVLTQPPSVSVAPGQTARITCGGNLIGSKLVHWYQQKPGQAPVLVVYDDSDRPSRIPERFSGSNSGNTATLTISRVEAGDEADYYCQVWDSSSDHVVFGGGTKLTVL	binds	–	binding result [3]: binds
C6 (yeast-displayed scFv clone) (scFv, V domains shown, also called Clone C6; C6-VH-L-VL; not shown: linker) VH: QMQLVESGGGVVQPGRSLRLSCAASGFTFRTYGMHWVRQAPGKGLEWVAVIWYDGSNKHYADSVKGRFTITRDNSKNTLNLQMNSLRAEDTAVYYCARAPQWMLVAEAFDLWGQGTMVTVSS VL: SYVLTQPPSVSVAPGQTARITCGGNLIGSKLVHWYQQKPGQAPVLVVYDDSDRPSRIPERFSGSNSGNTATLTISRVEAGDEADYYCQVWDSSSDHVVFGGGTKLTVL	–	–	relative affinity (normalized MFI against the positive control) [1]: > 20 % of positive control
C39 (scFv, V domains shown, also called C39-VH-L-VL) VH: QMQLVESGGGVVQPGRSLRLSCAASGFTFRTYGMHWVRQAPGKGLEWVAVIWYDGSNKHYADSVKGRFTITRDNSKNTLNLQMNSLRAEDTAVYYCARAPQWELTAEAFDLWGQGTMVTVSS VL: SYVLTQPPSVSVAPGQTARITCGGNLLGSKLVHWYQQKPGQAPVLVVYDDSDRPSWIPERFSGSNSGNTATLTISRVEAGDEADYYCQVWDTSSDHVVFGGGTKLTVL	binds	–	binding result [3]: binds
3212ACOXC14 (OX40 library) (scFv, V domains shown, not shown: linker) VH: QVQLVESGGGVVQPGRSLRLDCKASGIEFSNSGMHWVRQAPGKGLEWVAVIWYDGSKRYYADSVKGRFTISRDNSKNTLFLQMNSLRAEDTAVYYCATNDDYWGQGTLVTVSS VL: EIVLTQSPATLSLSPGERATLSCRASQSVEHYLAWYQQKPGQAPRLLIYDASNRATGIPARFSGSGSGTDFTLTISSLEPEDFAVYYCQQYSNWPLTFGQGTKVEIK	–	binds	–
OX-Clone71 (OX40 library) (scFv, V domains shown, not shown: linker) VH: QVQLVESGGGVVQPGRSLRLDCKASGIDFSNSGMHWVRQAPGKGLEWVAVIWYDGSKRYYADSVKGRFTISRDNSKNTLFLQMNSLRAEDTAVYYCASNDDYWGQGTLVTVSS VL: EIVLTQSPATLSLSPGERATLSCRASQSVEHYLAWYQQKPGQAPRLLIYDASNPATGIPARFSGSGSGTDFTLTISSLEPEDFAVYYCQQYSNWPLTFGQGTKVEIK	–	binds	–
3212ACOXC10 (OX40 library) (scFv, V domains shown, not shown: linker) VH: QVQLVESGGGVVQPGRSLRLDCKASGIDFSNSGMHWVRQAPGKGLEWVAVIWYDGSKRLYADSVKGRFTISRDNSKNTLFLQMNSLRAEDTAVYYCASNDDYWGQGTLVTVSS VL: EIVLTQSPATLSLSPGERATLSCRASQSVIHYLAWYQQKPGQAPRLLIYDASNRATGIPARFSGSGSGTDFTLTISSLEPEDFAVYYCQQYDNWPLTFGQGTKVEIK	–	binds	–

Now from value to binder, other results behind:

binding result [2]	binding result [4]	Binder	other results
binds	–	C40 (yeast-displayed scFv clone) (scFv, V domains shown, also called C40-VH-L-VL; not shown: linker) VH: QMQLVESGGGVVQPGRSLRLSCAASGFTFRTYGMHWVRQAPGKGLEWVAVIWYDGSNKHYADSVKGRFTITRDNSKNTLNLQMNSLRAEDTAVYYCARSPQWEWVHEAFDLWGQGTMVTVSS VL: SYVLTQPPSVSVAPGQTARITCGGNNIGSKLVHWYQQKPGQAPVLVVYDDSDRPSRIPERFSGSNSGNTATLTISRVEAGDEADYYCQVWDTSSDGVVFGGGTKLTVL	relative affinity (normalized MFI against the positive control) [1]: > 20 % of positive control
binds	–	C17 (scFv, V domains shown, also called C17-VH-L-VL) VH: QMQLVESGGGVVQPGRSLRLSCAASGFTFRTYGMHWVRQAPGKGLEWVAVIWYDGSNKHYADSVKGRFTITRDNSKNTLNLQMNSLRAEDTAVYYCARAPQWELTSEAFDLWGQGTMVTVSS VL: SYVLTQPPSVSVAPGQTARITCGGNLIGSKLVHWYQQKPGQAPVLVVYDDSDRPSAIPERFSGSNSGNTATLTISRVEAGDEADYYCQVWDTSSDHVVFGGGTKLTVL	–
binds	–	C15 (scFv, V domains shown, also called C15-VH-L-VL) VH: QMQLVESGGGVVQPGRSLRLSCAASGFTFRTYGMHWVRQAPGKGLEWVAVIWYDGSNKHYADSVKGRFTITRDNSKNTLNLQMNSLRAEDTAVYYCARAPQWELVAEAFDLWGQGTMVTVSS VL: SYVLTQPPSVSVAPGQTARITCGGNLIGSKLVHWYQQKPGQAPVLVVYDDGDRPSWIPERFSGSNSGNTATLTISRVEAGDEADYYCQVWDSGSDGVVFGGGTKLTVL	–
binds	–	C13 (scFv, V domains shown, also called C13-VH-L-VL) VH: QMQLVESGGGVVQPGRSLRLSCAASGFTFRTYGMHWVRQAPGKGLEWVAVIWYDGSNKHYADSVKGRFTITRDNSKNTLNLQMNSLRAEDTAVYYCARAPQWELVAEAFDLWGQGTMVTVSS VL: SYVLTQPPSVSVAPGQTARITCGGNLLGSKLVHWYQQKPGQAPVLVVYDDGDRPSLIPERFSGSNSGNTATLTISRVEAGDEADYYCQVWDTSSDHVVFGGGTKLTVL	–
–	binds	3212ACOXC31 (OX40 library) (scFv, V domains shown, not shown: linker) VH: QVQLVESGGGVVQPGRSLRLDCKASGITFSNSGMHWVRQAPGKGLEWVAVIWYDGSKAYYADSVKGRFTISRDNSKNTLFLQMNSLRAEDTAVYYCATNDDYWGQGTLVTVSS VL: EIVLTQSPATLSLSPGERATLSCRASQSVYHYLAWYQQKPGQAPRLLIYDAENRATGIPARFSGSGSGTDFTLTISSLEPEDFAVYYCQQYNDWPLTFGQGTKVEIK	–
–	binds	OX-Clone36 (OX40 library) (scFv, V domains shown, not shown: linker) VH: QVQLVESGGGVVQPGRSLRLDCKASGIDFSNSGMHWVRQAPGKGLEWVAVIWYDGSKRYYADSVKGRFTISRDNSKNTLFLQMNSLRAEDTAVYYCASNDDYWGQGTLVTVSS VL: EIVLTQSPATLSLSPGERATLSCRASQSVIHYLAWYQQKPGQAPRLLIYDASNRATGIPARFSGSGSGTDFTLTISSLEPEDFAVYYCQQYDNWPLTFGQGTKVEIK	–
–	binds	3212ACOXC21 (OX40 library) (scFv, V domains shown, not shown: linker) VH: QVQLVESGGGVVQPGRSLRLDCKASGIEFSNSGMHWVRQAPGKGLEWVAVIWYDGSKRYYADSVKGRFTISRDNSKNTLFLQMNSLRAEDTAVYYCASNDDYWGQGTLVTVSS VL: EIVLTQSPATLSLSPGERATLSCRASQSVDHYLAWYQQKPGQAPRLLIYDASNFATGIPARFSGSGSGTDFTLTISSLEPEDFAVYYCQQYSNWPLTFGQGTKVEIK	–
